# Experiment: yeast display, Sf9 membrane polyspecificity reagent, FACS + sequencing; frameworks hold sequencing errors
# Summary of the method: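 Sorting gates, low and high (top ~1%), were placed on anti-HA fluorescence to track expression and on streptavidin fluorescence to track reagent binding. A clone's polyreactivity label is taken from the gate it came out of. The reagent was 10% biotinylated, detergent-solubilized Sf9 membrane, applied for 1 hour at 4 °C to galactose-induced yeast display cells.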
row,Sequence,polyreactivity (PSR sort gate)
1,QVQLVESGGRLVQAGGSLSLSCAASGRTFGGYNMGWYRQAPGKERELVAAINWSGTTYYADSVKGRFTISRDNAKNTVYLQMNSLKPVDTAVYYCAASLVSYYGLARDSVDYWGQGTQVTVSS,low polyreactivity
2,QVQLVESGGRLVQAGRSLRLSCAASGFTFYDYAMVWYRQEPGKERELVARINGGGGTNYADSVKGRFTNSRDNAKNTVYLQMNSLKPEDTAVYYCAAEFGSRPPYDYWGQGTQVTVSS,low polyreactivity
3,QVQLVESGGRLVQAGRSLRLSCAASGSTFYLYAMGWYRQAPGKERELVASISIGGSTNYADSVKGRFTISRDNAKNTVYLQMNSLKPEDTAVYYCNADYYYVRTVRRLGYWGQGSQVTVSS,low polyreactivity
4,QVQLVESGGRLVQARGSLRLSCAASGRIFAYYTLGWYRQAPGKERELVAVISGSGGRTYYADSVKGRFTISRDNAKNTVYLQMNSRKPDDTAVYYCAAYYQGIKYDYWGQGTQVTVSS,high polyreactivity
5,QVQLVESGGRLVQAVGSLRLRCAPSGNTFPVYAMGWYRQASGKERELVATITSGGSTNYADSVKGRFTISRDNAKNTVYLQMNSLKPEDTAVYYCARRAVYSKRRYDYWGQGTQVTVSS,low polyreactivity
6,QVQLVESGGRLVQEGGSLRLSCAASGRTFSKYAMGWYRQAPGKERELVAAITWRGGRTYYADSVNGRFTISRDNAKNTVYLQMNSLKPEDTAVYYCAADPSIYRIYQYTNRYDYWGQGTQVTVSS,high polyreactivity
7,QVQLVESGGRLVQEGGSLRLSCAASGRTLYDYAMGWYRQAPGKERELVAGITWRGGSTSYAASVKGRFTISRDNAKNTVYLEMNSLKPEDTAVYDCATDGDERMDYWGQGTQVTVAS,low polyreactivity
8,QVQLVESGGRSVQAGGSRRLSCAASGFSFHYYAMGWYRAAPATERELVAAITSRGTATYYADSVKGRFTISRDTAKITVDLLMNCLKPEDTAVYYCAKASTERMGSWGQGTQVTVSS,high polyreactivity
9,QVQLVESGGRVDQAGGSLRLRCAASGRTFPVYAMGWYRQAPGKERELVAAITRCDDSTYYADSVKGRFTISRDNAKNTVYFEMNSLKPEDTAVYYCARSSRESYEYDYWGQGTQVTVSS,low polyreactivity
10,QVQLVESGGSLVQAGGSLLLSSAASLRTFGVNDIGWYRKAPGKERNFVAAISYSDTSTYYADSVKVSFTISRDNAKNTVYLQMNSLKPEDTAVYYCAVETYLQYDNGYGHDYWGQGTQVTVSS,low polyreactivity
11,QVQLVESGGVFVQAGGTLRLSCAASGITLNGYVMGWYRQAPGKEREFVAVITTRGGSTYYADSVKGRFTISRDNAKNTVYLQMNSLNPEDTAVYYCAARYVREYNYWGQGTQVTVSS,high polyreactivity
12,QVQLVESGGVLDPAGGSLRLSCAASGSTFISNAMRWYRQAPGKERELVATITYSDATTYYADSVKGRFTISRDNAKNTVYLQMNSLKPEDTAVYYCNTRFFRPLWGYNYWGQGTQVTVSS,low polyreactivity
13,QVQLVESGGVLLQAGGSLRLSCAASGRIFTLYDRGWYRQAPGKEREMDAAISNSAGSTYYADSVKGRFTISRDNAKNTVYLQMNSLKPEDTAGYYCARSYSYWGYRSVYYWGQGTQVTVSS,high polyreactivity
14,QVQLVESGGVLVEAGGSLRLSCASSGRIFTYYSMGWYRQAPGKERELVAAISRSGRTYYADSVKGRFTISRDNAKNTVYLQMNSLKPEDSAVYFCAAEYYYSWFEYWGQGTQVTVSS,high polyreactivity
15,QVQLVESGGVLVQAGASLRLSCAASVFTFRRYAMGWYRQAPGKERELVAAITRDDSTNYADSVKGRFTISRDNAKNTVYLQMNSLKPEDTAVYYCAARLWYPYYYWGQGTQVTVSS,high polyreactivity
16,QVQLVESGGVLVQAGGILRLSCAESGSIFSYYAMVWYRQAPWKERELVASISWNGTSTYYADSVKGRFTISRDNSKNTVYLQMNSLKPEDTAVYYCNVRFNYRGTYDYWGQGTQVTVSS,low polyreactivity
17,QVQLVESGGVLVQAGGSLRISCAASGSTFYSYDMGWYRQAPGKERELVAAISSSSGSTYYADSVKARFTISRDNAKNTVYLQMNSLKPEDTAVYYCKRGRRYSHKYDYWGQVTQVTVSS,high polyreactivity
18,QVQLVESGGVLVQAGGSLRLSCAAAGRIFIWNAMGWYRQAPGKERELDAAISSGGTYYADSVKGRFTISRDNAKNTVYLQMNSLKPEDTAVYYCAADWEVYVSEFVYWGQGTQVTVSS,low polyreactivity
19,QVQLVESGGVLVQAGGSLRLSCAASGFIFKYYAMGWYRQATGKERDLVAAISSSGGRKYYADSVKGRFTISRDNAKNTVYLHMNRLKPEDTAVYYCNKATFVTYYFLGYDYWGQGTQVTVSS,high polyreactivity
20,QVQLVESGGVLVQAGGSLRLSCAASGFTFAYYAMGWYRQAPGKVRELVASITRSGGSTYYADSVKGRFTLSRDNAKNTVYLQMNSLKPEDTAVYYCAARYGLVRDVIPYDYWGQGTQVTVSS,high polyreactivity
21,QVQLVESGGVLVQAGGSLRLSCAASGFTFYRYDMGWYRQAPVKERELVAAITWSGGSTYYADSLKGRFTISRDNAKNTVYLQMNSLKPEDTAVYDCAAENYDGGFEYWGLGTQVTVSS,low polyreactivity
22,QVQLVESGGVLVQAGGSLRLSCAASGFTLKWNAMGWYRQAPGKERELVARISRSGGSTNYADSVKGRFTISRDNAKNTVYLQMISLKPEDTAVFYCNTPSSREMDYWGQGTQVTVSS,low polyreactivity

row,Sequence,polyreactivity (PSR sort gate)
1,QVQLVESGGVLVQAGGSLRLSCAASGITFEYYAMGWYRQAPGKERELVAAISWSGSSTYYADSVKGRFTISRDNAKNTVYLQMNSLKPEDTAVYYCNADSAWWASDDQYDYWGQGTQVTVSS,low polyreactivity
2,QVQLVESGGVLVQAGGSLRLSCAASGITLPVYGMGWYRQAPGKERELVAVIDIVGITNYADSVKGRFTISRDNAKNTVYLQMNSLNPEDTAVYYCAKRYVYIADGGEYYYWGQGTQVTVSS,low polyreactivity
3,QVQLVESGGVLVQAGGSLRLSCAASGLIFKFYAMGWYRQAPGKERELVARISSSGGSTYYADSVKGRFTTSRDNAKNTVYLQMNSLKPEDTAVSYCAAGAYYVDRYARSSIFSYYYWGQATQVTVSS,high polyreactivity
4,QVQLVESGGVLVQAGGSLRLSCAASGLTIQTNAMGWYREAPVKERELVAAISRRGSSTYYADSVKGRFTISRDNAKNTVYLQMISLKPEDTAVYYCATGGVLYPYWRGKRYGYWGQGTQVTVSS,high polyreactivity
5,QVQLVESGGVLVQAGGSLRLSCAASGRIFRYYAMGWYRQAPGKERELVAAIRYRSGGTYYADSVKGRFTISRDNAKNTVYLQMNSLKTEDTAVYYCNADKRLRGHGYDYWGEGTQVTVSS,high polyreactivity
6,QVQLVESGGVLVQAGGSLRLSCAASGRIFSYYAMGWYRQAPGKERELVARITSRGASTYYADSVKGRFTISRDNAKNTVYLQMNSLKPEDTAVYYCAARKDSTRRFDYWGQGTQVTVLS,high polyreactivity
7,QVQLVESGGVLVQAGGSLRLSCAASGRTFGHYAMGWYRQAPGKERELVAAITRDDGTNYADSVKGRFTISRDNAKNTVYLQMNSLKPEDTAVYYCDRDVLEKYRQSWGYVPLQGYDYWGQGTQVTVSS,low polyreactivity
8,QVQLVESGGVLVQAGGSLRLSCAASGRTFNLIAMGWYRQAPGKERELVAAISRSGGSTYYADSEKGRFTISRDNAKNTVYLQMNSLNPEETAVYYCNASALGRPYYRGSYFVFQGYEYWGLGTQVTVSS,low polyreactivity
9,QVQLVESGGVLVQAGGSLRLSCAASGSIFCVNAMGWSRQAPGKERELVAAISWRGASTYYADSVKGRFTISRDNAMNTVYLQMNSLKPEDTAVYYCAAKCTGGDPYYAFDYWGQGTHVTVSS,low polyreactivity
10,QVQLVESGGVLVQAGGSLRLSCAASGSIFEPYVMGWYRQPPGKERELVAAIRQSGGSTYYADSVKGRFTISRDNAKNTVYLQMNSLKPEDTAVYYCNAEQNPSGLYDYRGVEGEMGYWRQGTQVTVSS,low polyreactivity
11,QVQLVESGGVLVQAGGSLRLSCAASGSIFGNYAMGWYRQAPGKETELVAAISYRGGSTYYADSVKGRFTISRDNAKNTVYLQMNSLKPEDTAVYYCNAGGRRRIFAHSSTGDYWGQGTQVTVSS,high polyreactivity
12,QVQLVESGGVLVQAGGSLRLSCAASGSIFSSNAMGWYRQAPGKERELVAAISSSGGSTYYADSVKGRFTISRDNAKNTVYLQMNSLKPEDTAVYYCATGKQVYGHYYWGQGTQVTVSS,low polyreactivity
13,QVQLVESGGVLVQAGGSLRLSCAASGSLFILYALGWYRQEPGKEREFVASISRSGSTYYADSVKGRFTISRDNAKNSVYLQMNSLKPEDTAVYYCAADYRQFYRYVDYEYWGQGTQVTVSS,low polyreactivity
14,QVQLVESGGVLVQAGGSLRLSCAASGSTFYTYAMGWYRQAPGKERELVAAITRRGGRTYYADSVKGRFTISRDIAKNTVYLQMNSLKPEDTSVYYCAAYPWATCYGEWGQGTQVTVSS,high polyreactivity
15,QVQLVESGGVLVQAGGSLRLSCAASGYINGRYVMGWYRTAPGKETELVAAITSSGGSTYYADSVKGRFTISRDNAKNTVYLQINILSPDDTAVYYCAAPTYGRFLRNDYWGPGTQVTVSS,high polyreactivity
16,QVQLVESGGVLVQAGGSLRLSCADSGSTFFFYAMGWYRHAPGKERELLAAISSTGRTYYADSVKGRFTISRDNAKNSVYLQMNSLKPEETAVYYCAARIYSGYSYWGQGTQVTVSS,high polyreactivity
17,QVQLVESGGVLVQAGGSLRLTCAAYGFSFSTYAMGWYRQAPGKERQLVASIDWSGDSTYYADSVKGRFTISRDNAKNTVYLQMNSLKPEDTAVYYCAADDASYPYIFDSYDYWGQGTQVTVSS,low polyreactivity
18,QVQLVESGGVLVQAGVSLRLSCAASGRTFFRYTMGWYRQAPGKERELVAAISRSDGSTYYADSVKGRFTISRDNAKNTVYLQMNSLKPEDTAVYYCAKSLPSGYYYWGQGTQVTVSS,low polyreactivity
19,QVQLVESGGVLVQAVGSLRLSCAASGSIFHDYALGWYRQAPGKEREMVAAISSGSGSTSYADSVKGRFTISRDNAKNTVYLQMNSLKPEATAVYYCNADADAVPFAFRGSYDYWGQGTQVTVSS,low polyreactivity
20,QVQLVESGGVLVQPGCILRLSCAASGRIYWYYAMGWYRQAPGKERELVAAISRSRGSTYYADSVKGRFTISRDNEKNTVYLQMNSLKPEDTAVYYCAAGARAFDDDYWGQGTQVTVSS,low polyreactivity
21,QVQLVESGGVLVQPGGSLRLSCAASGSTFQSYTMGWYRQAPGKERELVAAISSSGGRTYYADSVKGRFTISRDNEKNTVYLQMNRLKPEDTAVYYCAAVTKSWRGATWYDYWGQGTHVTVSS,high polyreactivity
